These results are taken from US10414821 (dated 2019).

Broadly, the EC50 is the concentration at which the effect is half-maximal. The IC50 is the concentration that inhibits the measured activity by half. A lower IC50 goes with greater potency.

For test [1], the target named is purified recombinant PD-1 fusion protein (Sino Biological Inc, Cat #: 10377-H08H) (human, UniProt Q15116 25-170). Nature of the test: ELISA.
Another test has as its target PD-1 protein (UniProt Q15116 25-167). Nature of the test: blocking ELISA (PD-1/PD-L1).

Sequence of purified recombinant PD-1 fusion protein (Sino Biological Inc, Cat #: 10377-H08H) (Q15116 25-170): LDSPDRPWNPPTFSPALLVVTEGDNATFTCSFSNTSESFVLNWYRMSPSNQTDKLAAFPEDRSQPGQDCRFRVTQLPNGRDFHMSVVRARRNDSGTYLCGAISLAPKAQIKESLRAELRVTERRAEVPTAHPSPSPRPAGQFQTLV
Sequence of PD-1 protein (Q15116 25-167): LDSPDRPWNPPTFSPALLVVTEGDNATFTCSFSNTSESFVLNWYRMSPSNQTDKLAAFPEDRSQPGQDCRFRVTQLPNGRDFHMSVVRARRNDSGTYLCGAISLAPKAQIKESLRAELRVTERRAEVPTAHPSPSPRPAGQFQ

B1: BA08-1 (antibody, V domains shown)
VH: QVQLVQSGAEVKKPGASVKVSCKASGYTFTSYYMYWVRQAPGQGLEWMGGVNPSNGGTNFNEKFKSRVTITADKSTSTAYMELSSLRSEDTAVYYCARRDYRYDMGFDYWGQGTTVTVSS
VL: EIVLTQSPATLSLSPGERATISCRASKGVSTSGYSYLHWYQQKPGQAPRLLIYLASYLESGVPARFSGSGSGTDFTLTISSLEPEDFATYYCQHSRELPLTFGTGTKVEIK
Consider B1, for which the concentration for a half-maximal effect (EC50) in test [1] was determined as 0.0371 nM. The molecule also had an IC50 in the test with PD-1 protein of 0.288 nM.
